Molecular target: T1, Recombinant human Gβ1γ2 (human, UniProt P62873 1-340; P59768 1-71)
T1 construct: G-protein beta 1 subunit, human, recombinant; G-protein gamma 2 subunit, human, recombinant; Preformed heterodimer bought as such; detected by an anti-Gβ antibody; also called Gβγ; purified Gβγ; source: bought: Calbiochem-Merck Millipore (recombinant)
Test: pull-down; competition: GST-AGS8-C (100 nM) incubated with recombinant human Gβ1γ2 (10 nM) in the presence of rising doses of peptide CP1 or CP9, adsorbed to a glutathione matrix; immunoblot with densitometry, n = 6
Details: both partners purified

IC50 [µM]	Binder
2.77	SFVIVDWNKAIPGDVVTGYLVYSASYEDFI (About 97% HPLC purity; source: synthetic peptide (Invitrogen)) [AGS8-peptide CP9]
6.73	APRNITVVAMEGCHSFVIVDWNKAIPGDV (About 97% HPLC purity; source: synthetic peptide (Invitrogen)) [AGS8-peptide CP1]
